Assay results published in publication PMC6292511.

Key:
DMA-1::RFP (C. elegans) = assay: single molecule pull-down
[1] = target: DMA-1::GFPnovo2 (C. elegans); assay: FRET or BRET

Row | Substance | percent of DMA-1::RFP speckles co-localized with HPO-30::GFP (DMA-1::RFP (C. elegans)) [%] | fraction of DMA-1::GFPnovo2 bound to HPO-30::mCherry [1] [%]
1 | HPO-30::GFP (natural protein) | 56.1 | 
2 | HPO-30::mCherry (natural protein) |  | 30
